Reference: paper PMC9688426, “Comparison of Optical and Electrical Sensor Characteristics for Efficient Analysis of Attachment and Detachment of Aptamer”

Biological target: thrombin (bovine, UniProt P00735;P00735 318-366;367-625)
Test: graphene oxide FET resistance change; TBA adsorbed on graphene oxide; thrombin detected down to 250 pM within 5 min (detection limit, not Kd); Assay buffer and temperature not given in the material (reagents list PBS pH 7.4 and Trizma base); sections 3.2.1-3.2.3 have no text. GOx, trypsin, lysozyme, ficin and goat anti-mouse IgG were purchased, but no result for them is in the material
Conditions: protein: commercial; copies: 1;1

GGTTGGTGTGGTTGG (ssDNA) [TBA]: binds.
